# In US7285408B2, “Crystalline form of an n231 mutant catalytic domain of ADAM33 and methods of use thereof” (Schering Corporation, priority 2002, dated 2007):
# B1: ADAM33 N231Q: modified human ADAM33 catalytic domain, Asn231 replaced by glutamine (SEQ ID NO: 8) with C-terminal Ser-Gly His6 Tag (protein)
# chain: EARRTRKYLELYIVADHTLFLTRHRNLQHTKQRLLEVANYVDQLLRTLDIQVALTGLEVWTERDRSRVTQDANATLWAFLQWRRGLWAQRPHDSAQLLTGRAFQGATVGLAPVEGMCRAESSGGVSTDHSELPIGAAATMAHEIGHSLGLSHDPDGCCVEAAAESGGCVMAAATGHPFPRVFSACSRRQLRAFFRKGGGACLSNAPSGHHHHHH
# modifications: C-terminal Ser-Gly His6 tag; homo sapiens
# B2: wild type (WT) ADAM33: ADAM33 protein fragment with pre, pro and wild type catalytic domain and Ser-Gly-His6 Tag expressed in Drosophila S2 cells (SEQ ID NO: 2) (protein)
# chain: MKLCILLAVVAFVGLSLGRSPWPGVPLQGHIPGQPVTPHWVLDGQPWRTVSLEEPVSKPDMGLVALEAEGQELLLELEKNHRLLAPGYIETHYGPDGQPVVLAPNHTDHCHYQGRVRGFPDSWVVLCTCSGMSGLITLSRNASYYLRPWPPRGSKDFSTHEIFRMEQLLTWKGTCGHRDPGNKAGMTSLPGGPQSRGRREARRTRKYLELYIVADHTLFLTRHRNLNHTKQRLLEVANYVDQLLRTLDIQVALTGLEVWTERDRSRVTQDANATLWAFLQWRRGLWAQRPHDSAQLLTGRAFQGATVGLAPVEGMCRAESSGGVSTDHSELPIGAAATMAHEIGHSLGLSHDPDGCCVEAAAESGGCVMAAATGHPFPRVFSACSRRQLRAFFRKGGGACLSNAP
# modifications: Ser-Gly-His6 tag; homo sapiens
# Experiments:
# [1] = Thermal denaturation monitored by circular dichroism (220 nm) as a function of temperature and CaCl2 concentration; format: physicochemical
# Protocol: The effect of CaCl2 on the stability of the ADAM33 N231Q catalytic domain as determined by thermal denaturation: The effect of the concentration of CaCl2 on the retention of the secondary structure of the ADAM33 N231Q catalytic domain was monitored by circular dichroism (λ220 nm) as a function of temperature. A parallel study was performed replacing the CaCl2 with NaCl to control for the effect of the corresponding increase in ionic strength. The ADAM33 N231Q catalytic domain was purified as described above and then diluted to 0.2 mg/ml. The sample was then dialyzed against 25 mM Hepes, pH 7.5, 5% glycerol overnight. The temperature dependent protein denaturation was performed using a JASCO 810 spectropolarimeter under the following conditions: • Protein concentration: 0.2 mg/ml (based on a BioRad Protein Assay) • Cell length: 0.1 cm • Monitor wavelength: 220 nm • Temperature slope: 2° C./min • Measurement range: 20-80° C.
# Therefore, greater than 10 μM CaCl2, and preferably between 0.3-100 mM CaCl2 should be included to maintain the stability of this protein.
# [2] = Storage stability of purified protein (N-terminal sequencing, mass spectrometry, enzymatic assay); format: physicochemical; conditions: 4° C.; expression induced with 0.5 mM CuSO4, purified as complex of pro and catalytic domains
# Protocol: The Ni-NTA column was washed with 15-20 CV of buffer C until a stable baseline was achieved, and the protein was eluted with 250 mM imidazole in buffer C. The eluted protein was concentrated to 5-15 mg/ml, and then applied to a SUPERDEX-75 gel filtration column equilibrated with buffer GF (25 mM HEPES, pH 7.5, 150 mM NaCl, 10% glycerol, 50 mM imidazole). Fractions corresponding to the monomer of ADAM33 were pooled, and diluted to 0.3 mg/ml, flash-frozen in liquid nitrogen, and stored at −80° C. […] When used for crystallography, the frozen protein was thawed on ice and concentrated to 10 mg/ml using Ultrafree®-15 Centrifugation Filter Device (Millipore, Bedford, Mass.). The thawed protein was immediately subjected to crystallization trials. Using this protocol a total of 1-9 mg of ADAM33 N231Q comprising the amino acid sequence of SEQ ID NO: 8 and SEQ ID NO: 36 (the C-Terminal Ser-Gly His6 Tag) was obtained from 1 liter of conditioned medium. 5 mM CaCl2 is preferably included throughout the purification process. It is also preferred that 5 mM CaCl2 is retained in the storage buffer.
# After designing an appropriate DNA construct, the expression of the ADAM33 catalytic domain in an eukaryotic cell line needed to be optimized. […] However, under these induction conditions, Cu^2+ readily binds to the C-terminal His6 Tag. […]
molecule,measurement,setting,value
B1,ΔDenaturation Temp.,[1]; CaCl2 0 mM,0.0 °C
same,Denaturation Temp.,"[1]; CaCl2 0 mM, 0.2 mg/ml protein, 25 mM Hepes pH 7.5, 5% glycerol",43.5 °C
same,Denaturation Temp.,[1]; CaCl2 0.003 mM,50.6 °C
same,ΔDenaturation Temp.,[1]; CaCl2 0.003 mM vs 0 mM,7.1 °C
same,Denaturation Temp.,[1]; CaCl2 0.03 mM,52.9 °C
same,ΔDenaturation Temp.,[1]; CaCl2 0.03 mM vs 0 mM,9.4 °C
same,Denaturation Temp.,[1]; CaCl2 0.3 mM,53.9 °C
same,ΔDenaturation Temp.,[1]; CaCl2 0.3 mM vs 0 mM,10.4 °C
same,Denaturation Temp.,[1]; CaCl2 0.5 mM,56.9 °C
same,ΔDenaturation Temp.,[1]; CaCl2 0.5 mM vs 0 mM,13.4 °C
same,Denaturation Temp.,[1]; CaCl2 1.0 mM,57.9 °C
same,ΔDenaturation Temp.,[1]; CaCl2 1.0 mM vs 0 mM,14.4 °C
same,Denaturation Temp.,[1]; CaCl2 2.5 mM,60.6 °C
same,ΔDenaturation Temp.,[1]; CaCl2 2.5 mM vs 0 mM,17.1 °C
same,Denaturation Temp.,[1]; CaCl2 5.0 mM,61.5 °C
same,ΔDenaturation Temp.,[1]; CaCl2 5.0 mM vs 0 mM,18.0 °C
same,Denaturation Temp.,[1]; CaCl2 10.0 mM,63.3 °C
same,ΔDenaturation Temp.,[1]; CaCl2 10.0 mM vs 0 mM,19.8 °C
same,Denaturation Temp.,[1]; CaCl2 25.0 mM,64.6 °C
same,ΔDenaturation Temp.,[1]; CaCl2 25.0 mM vs 0 mM,21.1 °C
same,Denaturation Temp.,[1]; CaCl2 50.0 mM,65.6 °C
same,ΔDenaturation Temp.,[1]; CaCl2 50.0 mM vs 0 mM,22.1 °C
same,Denaturation Temp.,[1]; CaCl2 100.0 mM,65.2 °C
same,ΔDenaturation Temp.,[1]; CaCl2 100.0 mM vs 0 mM,21.7 °C
same,stability in the presence of CaCl2 relative to NaCl,[1]; equivalent ionic strength,significantly greater stability
B2,stability of purified protein,[2],labile
